Experimental data published in PMC4164012.

Molecular target: T1, recombinant E. coli L-asparaginase II (E. coli K-12 (JM109)), P00805
T1 chain: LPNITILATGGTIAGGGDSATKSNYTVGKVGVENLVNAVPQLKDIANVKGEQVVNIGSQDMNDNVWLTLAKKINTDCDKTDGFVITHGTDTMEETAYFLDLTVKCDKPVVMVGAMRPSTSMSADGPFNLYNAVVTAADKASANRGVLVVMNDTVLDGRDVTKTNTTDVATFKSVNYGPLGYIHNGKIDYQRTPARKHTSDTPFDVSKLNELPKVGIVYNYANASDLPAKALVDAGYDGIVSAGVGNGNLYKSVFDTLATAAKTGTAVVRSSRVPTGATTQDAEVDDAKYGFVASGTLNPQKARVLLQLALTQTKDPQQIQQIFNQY
Assay: SEC; analytical HPLC gel filtration on Bio-Sep S-2000, 50 mM Tris-HCl, 10 mM NaCl, pH 7.5; 20 ul of 1.5 mg/ml injected, 1 ml/min; mass from calibration with marker proteins
Conditions: remark: other sources report otherwise

- stoichiometry N: 4
B1: recombinant E. coli L-asparaginase II, P00805 23-348 (enzyme)
chain: T1 chain
